Measurements from doi:10.1101/2024.09.10.612331.
One block for each molecule: values may come before it.

Legend:
[1] = biological target: ALX4 homeodomain R216A (R3A) (mouse cDNA (identical to human in this region, as the paper says)); experiment: native gel or EMSA
[2] = biological target: ALX4 homeodomain (aa 209-274) (mouse cDNA (identical to human in this region, as the paper says)); experiment: native gel or EMSA
[3] = biological target: ALX4 homeodomain (aa 209-274) (mouse cDNA (identical to human in this region, as the paper says)); experiment: crystal structure
[4] = biological target: ALX4 homeodomain V241R (V28R) (mouse cDNA (identical to human in this region, as the paper says)); experiment: native gel or EMSA
[5] = biological target: ALX4 homeodomain R215A (R2A) (mouse cDNA (identical to human in this region, as the paper says)); experiment: native gel or EMSA
ALX4 R216G = ALX4 R216G (mouse cDNA (human protein sequence …, UniProt O35137 158-291, R204G)); experiment: ITC
ALX4 R216G (mouse cDNA, sequence (O35137 158-291 R204G): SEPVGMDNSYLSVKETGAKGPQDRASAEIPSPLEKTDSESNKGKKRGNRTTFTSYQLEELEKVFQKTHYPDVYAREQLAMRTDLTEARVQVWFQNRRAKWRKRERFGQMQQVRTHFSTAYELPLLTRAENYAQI

ALX4 R215A;R216A = ALX4 R215A;R216A (mouse cDNA (human protein sequence …, UniProt O35137 158-291, R203A;R204A)); experiment: ITC
ALX4 R215A;R216A (mouse cDNA, sequence (O35137 158-291 R203A/R204A): as the sequence (O35137 158-291 R204G) above, with R46A, G47A counted along it

ALX4 K211E = ALX4 K211E (mouse cDNA (human protein sequence …, UniProt O35137 158-291, K199E)); experiment: ITC
ALX4 K211E (mouse cDNA, sequence (O35137 158-291 K199E): as the sequence (O35137 158-291 R204G) above, with K42E, G47R counted along it

ALX4 Q225E = ALX4 Q225E (mouse cDNA (human protein sequence …, UniProt O35137 158-291, Q213E)); experiment: ITC
ALX4 Q225E (mouse cDNA, sequence (O35137 158-291 Q213E): as the sequence (O35137 158-291 R204G) above, with G47R, Q56E counted along it

ALX4 V241R = ALX4 V241R (mouse cDNA (human protein sequence …, UniProt O35137 158-291, V229R)); experiment: ITC
ALX4 V241R (mouse cDNA, sequence (O35137 158-291 V229R): as the sequence (O35137 158-291 R204G) above, with G47R, V72R counted along it

ALX4 R272P = ALX4 R272P (mouse cDNA (human protein sequence …, UniProt O35137 158-291, R260P)); experiment: ITC
ALX4 R272P (mouse cDNA, sequence (O35137 158-291 R260P): as the sequence (O35137 158-291 R204G) above, with G47R, R103P counted along it

ALX4 R215A = ALX4 R215A (mouse cDNA (human protein sequence …, UniProt O35137 158-291, R203A)); experiment: ITC
ALX4 R215A (mouse cDNA, sequence (O35137 158-291 R203A): as the sequence (O35137 158-291 R204G) above, with R46A, G47R counted along it

[6] = biological target: ALX4 WT (ITC, mutant-series EMSA) (mouse cDNA (human protein sequence …, UniProt O35137 158-291)); experiment: ITC
ALX4 WT (ITC, mutant-series EMSA) (mouse cDNA, sequence (O35137 158-291, stated change not applied): as the sequence (O35137 158-291 R204G) above, with G47R counted along it

ALX4 R218Q = ALX4 R218Q (mouse cDNA (human protein sequence …, UniProt O35137 158-291, R206Q)); experiment: ITC
ALX4 R218Q (mouse cDNA, sequence (O35137 158-291 R206Q): as the sequence (O35137 158-291 R204G) above, with G47R, R49Q counted along it

ALX4 R216A = ALX4 R216A (mouse cDNA (human protein sequence …, UniProt O35137 158-291, R204A)); experiment: ITC
ALX4 R216A (mouse cDNA, sequence (O35137 158-291 R204A): as the sequence (O35137 158-291 R204G) above, with G47A counted along it

Molecule: ALX4 homeodomain R216A (R3A) (domain or fragment)
fold reduction of cooperativity (Tau on the P3 site) against wild type [1]: 10 fold

Molecule: ALX4 homeodomain (aa 209-274) (domain or fragment)
Tau (cooperativity factor on the P3 DNA site) [2]: 110
Tau (cooperativity factor on the P4 DNA site) [2]: 1.5
stoichiometry N [3]: 2

B1: 14-mer monomer site ITC duplex (dsDNA)
DNA 1: CGCTAATTAGCTCG
DNA 2: CGAGCTAATTAGCG
Kd (ALX4 R216G): 41.8 ± 8.81 nM
Kd (ALX4 R215A;R216A): 214 ± 39.8 nM
Kd (ALX4 K211E): 21.5 ± 7.68 nM
Kd (ALX4 Q225E): 52.5 ± 12.3 nM
Kd (ALX4 V241R): 7.45 ± 5.22 nM
Kd (ALX4 R272P): 43.6 ± 12.1 nM
Kd (ALX4 R215A): 30.4 ± 18.5 nM
Kd [6]: 15.5 ± 0.98 nM
binding result (ALX4 R218Q): no binding
Kd (ALX4 R216A): 15.2 ± 4.63 nM

Further lines, results first:

Tau (cooperativity factor on the P3 DNA site) [4]: 0.327
Molecule: ALX4 homeodomain V241R (V28R) (domain or fragment)

fold reduction of cooperativity (Tau on the P3 site) against wild type [5]: 5 fold
Molecule: ALX4 homeodomain R215A (R2A) (domain or fragment)
